From patent US20180155451A1 (published 2018) come the findings set out here.

Where a chain is given by its changes, count along the chain named. Names may count otherwise. Like-named read-outs stand apart in the source and are kept apart here. Bounds are passed on as bounds.

Assay [1] deals with T1, FcγRIIIa extracellular domain with C-terminal His tag (human, UniProt P08637 17-208).
T1 construct: extracellular domain; also called FcgRIIIa; CD16A
Kind of assay: SPR (Biacore), antibody captured, FcγRIIIa as analyte, 1:1 Langmuir kinetic fit. An excerpt: (§1) First, it was considered which H chain should be introduced with Y296W. GpH7-TA52 (SEQ ID NO: 44) resulting from the introduction of the mutation Y296W into GpH7-TA7 was constructed, and expressed and prepared in combination with GpH7-B78 according to the method described in Reference Example 1. Furthermore, GpH7-TA58 (SEQ ID NO: 45) resulting from the introduction of Y296W into GpH7-B78 was constructed, and expressed and prepared in combination with GpH7-TA22 according to the method described in Reference Example 1. To assess the effects of combinations with Y296W, the prepared antibodies were compared for the FcγRIIIa-binding activity according to the method described in Reference Example 2 (Table 16).
(§2) Analysis of interaction between objective antibody and the FcγR was carried out using Biacore T100 (GE Healthcare). HBS-EP+ (GE Healthcare) was used as the running buffer, and the measurement temperature was set to 25° C. Chips produced by immobilizing the antigen peptide by the amine coupling method to a Series S Sencor Chip CM5 (GE Healthcare), or alternatively, chips produced by allowing preliminarily biotinylated antigen peptides to interact with and immobilize onto a Series S Sensor Chip SA (certified) (GE Healthcare) were used. Antibodies of interest were captured onto an antigen peptide-immobilized chip, and allowed to interact to each FcγR diluted with running buffer. To regenerate and repeatedly use the chip, the antibodies captured on the chip were washed off by reacting 10 mM glycine-HCl, pH 1.5.
(§3) The FcγR-binding activity of each antibody was assessed primarily using as an indicator the FcγR-binding activity and dissociation constant for FcγR.
Background: Surface plasmon resonance follows binding to a sensor surface in real time, without labels.

Assay [2] deals with T1, FcγRIIIa extracellular domain with …. Kind of assay: SPR (Biacore), ratio of KD values for FcγRIIIa.
Source text: as §1, §2

Assay [3] has the same target. Kind of assay: SPR (Biacore), antibody captured, FcγRIIIa as analyte, 1:1 Langmuir kinetic fit. The procedure:
as §2, §3
The source holds these as a separate data set.

For assay [4] the target is unchanged. Kind of assay: SPR (Biacore), ratio of KD values for FcγRIIIa. This is another data set of the same source.
Assay [5] shares this target. Kind of assay: SPR (Biacore), antibody captured, FcγRIIIa as analyte, 1:1 Langmuir kinetic fit. An outline of the steps: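 Biacore T100 at 25° C in HBS-EP+; antibodies captured on antigen-peptide chips (amine-coupled CM5 or biotinylated peptide on SA), with FcγR in running buffer flowed over.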
The source holds these as a separate data set.

Assay [6] shares this target. Kind of assay: SPR (Biacore), ratio of KD values for FcγRIIIa. The procedure: as §2
This is another data set of the same source.

Assay [7] has the same target. Kind of assay: SPR (Biacore), antibody captured, FcγRIIIa as analyte, 1:1 Langmuir kinetic fit.
Source text: (§4) Then, GpH7-TA54 (SEQ ID NO: 46) resulting from the introduction of Y296W into GpH7-TA22 was constructed, and expressed and prepared in combination with GpH7-B78 according to the method described in Reference Example 1. Furthermore, GpH7-TA58 (SEQ ID NO: 45) resulting from the introduction of Y296W into GpH7-B78 was constructed, and expressed and prepared in combination with GpH7-TA22 according to the method described in Reference Example 1. To assess the effect of combination with Y296W, the prepared antibodies were compared for the FcγRIIIa-binding activity according to the method described in Reference Example 2 (Table 17).
as §2, §3
This is another data set of the same source.

For assay [8] the target is unchanged. Kind of assay: SPR (Biacore), ratio of KD values for FcγRIIIa.
Source text: as §4, §2
This is another data set of the same source.

Assay [9] deals with T2, FcγRIIIa (human, UniProt P08637 17-208).
T2 construct: extracellular domain; The protein is soluble, His-tagged, and was expressed in FreeStyle293 cells; also called FcgRIIIa; CD16A; not shown: His tag attached to the C terminus
Kind of assay: SPR (Biacore T100); antibody captured on an antigen peptide chip, FcγRIIIa as analyte; 1:1 Langmuir kinetic fit. Here is the method: (§5) Then, K334G was also assessed in the same manner. GpH7-TA40 (SEQ ID NO: 47) resulting from the introduction of K334G into GpH7-TA7 was constructed, and expressed and prepared in combination with GpH7-B78 according to the method described in Reference Example 1. Furthermore, GpH7-TA50 (SEQ ID NO: 48) resulting from the introduction of K334G into GpH7-B78 was constructed, and expressed and prepared in combination with GpH7-TA7 according to the method described in Reference Example 1. To assess the effect of combinations with K334G, the prepared antibodies were compared for the FcγRIIIa binding according to the method described in Reference Example 2 (Table 18).
as §2

The target of assay [10] is T2, FcγRIIIa. Kind of assay: SPR (Biacore); KD of GpH7-TA7/GpH7-B78/GpL16-k0 for FcγRIIIa divided by the KD of this antibody. Here is the method:
as §5
as §2, with “To regenerate and repeatedly use the chip, the antibodies captured on the chip were washed off by reacting 10 mM glycine-HCl, pH 1.5.” left out

Another assay deals with T3, FcγRIa (human, UniProt P12314 16-292).
T3 construct: extracellular domain; also called FcgRIa; FcgRI; not shown: His tag attached to the C terminus
Kind of assay: SPR (Biacore4000), kinetic analysis. The procedure: The variants described above were assessed for their binding to FcγR according to the method described in Reference Example 8.
Analysis of interaction between obj ective antibody and the FcγR was carried out using Biacore T100 (GE Healthcare), Biacore T200, Biacore A100, and Biacore 4000. HBS-EP+ (GE Healthcare) was used as the running buffer, and the measurement temperature was set to 25° C. Chips produced by immobilizing the antigen peptide by the amine coupling method to a Series S sensor Chip CM5 (GE Healthcare), chips produced by allowing preliminarily biotinylated antigen peptides to interact with and immobilize onto a Series S Sensor Chip SA (certified) (GE Healthcare), chips produced by immobilizing Protein L (ACTIGEN, BioVision) to Series S Sencor Chip CM5 (GE Healthcare), or chips produced by immobilizing Protein A/G (Thermo Scientific) to Series S Sencor Chip CM5 (GE Healthcare) were used. Antibodies of interest were captured onto these chips, and allowed to interact to each FcγR diluted with running buffer. To regenerate and repeatedly use the chip, the antibodies captured onto the chip were washed off by reacting 10 mM glycine-HCl, pH 1.5.

The target of the next assay is T4, FcγRIIIa V (human, UniProt P08637 17-208).
T4 construct: extracellular domain; also called FcgRIIIa V; FcgRIIIaV; not shown: His tag attached to the C terminus
Kind of assay: SPR (Biacore), KD.

The target in a further assay is T5, FcγRIIIa F (human, UniProt P08637 17-208).
T5 construct: extracellular domain; also called FcgRIIIa F; FcgRIIIaF; not shown: His tag attached to the C terminus
Kind of assay: SPR (Biacore), KD.

T2 sequence (P08637 17-208): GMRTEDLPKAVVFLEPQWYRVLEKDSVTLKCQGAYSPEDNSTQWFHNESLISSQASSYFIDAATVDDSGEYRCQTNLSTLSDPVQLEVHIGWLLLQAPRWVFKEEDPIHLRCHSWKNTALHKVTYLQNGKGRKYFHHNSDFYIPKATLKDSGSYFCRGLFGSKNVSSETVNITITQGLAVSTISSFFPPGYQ
T1 sequence (P08637 17-208): as above
T3 sequence (P12314 16-292): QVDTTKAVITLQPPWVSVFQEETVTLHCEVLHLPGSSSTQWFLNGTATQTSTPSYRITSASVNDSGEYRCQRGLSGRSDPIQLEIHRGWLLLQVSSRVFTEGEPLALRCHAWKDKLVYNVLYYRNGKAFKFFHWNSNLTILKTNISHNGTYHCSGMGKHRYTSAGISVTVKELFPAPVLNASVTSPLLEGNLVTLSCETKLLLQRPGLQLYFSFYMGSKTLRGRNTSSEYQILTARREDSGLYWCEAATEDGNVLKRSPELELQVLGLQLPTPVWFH
T5 sequence (P08637 17-208): as the sequence (P08637 17-208) above
T4 sequence (P08637 17-208 F176V limits assumed): as the sequence (P08637 17-208) above, with F160V counted along it

B1: GpH7-TA7/GpH7-B78/GpL16-k0 (antibody, human IgG1, kappa)
heavy 1: QVQLVQSGAEVKKPGASVTVSCKASGYTFTDYEMHWIRQPPGEGLEWIGAIDPKTGDTAYSESFQDRVTLTADKSTSTAYMELSSLTSEDTAVYYCTRFYSYTYWGQGTLVTVSSASTKGPSVFPLAPSSKSTSGGTAALGCLVKDYFPEPVTVSWNSGALTSGVHTFPAVLQSSGLYSLSSVVTVPSSSLGTQTYICNVNHKPSNTKVDKKVEPKSCDKTHTCPPCPAPEYLWGPSVFLFPPKPKDTLMISRTPEVTCVVVDVSHEDPEVKFNWYVDGVEVHNAKTKPREEQYNATYRVVSVLTVLHQDWLNGKEYKCKVSNKALPAPIEKTISKAKGQPREPQVYTLPPSRKELTKNQVSLTCLVKGFYPSDIAVEWESNGQPENNYKTTPPVLDSDGSFFLYSKLTVDKSRWQQGNVFSCSVMHEALHNRYTQKSLSLSP
heavy 2: B1 heavy 1 with Y232L, W234G, S237D, A296S, A328L, I330E, K354D, R433H, K437E
light: DIVMTQSPLSLPVTPGEPASISCQASESLVHSNRNTYLHWYLQKPGQSPQLLIYKVSNRFSGVPDRFSGSGSGTDFTLKISRVEAEDVGVYYCSQNTHVPPTFGQGTKVEIERTVAAPSVFIFPPSDEQLKSGTASVVCLLNNFYPREAKVQWKVDNALQSGNSQESVTEQDSKDSTYSLSSTLTLSKADYEKHKVYACEVTHQGLSSPVTKSFNRGEC
notes: Heterodimerized anti-glypican-3 IgG1 variant: L234Y/G236W/S298A in one H chain, S239D/A330L/I332E in the other
What is called Kd is the equilibrium constant for the complex coming apart. Take B1: the dissociation constant Kd in assay [1] stood at 4.1 nM; in assay [3] it was 4.1 nM; in assay [5], 4.7 nM. For the same molecule, the “KD ratio (KD of GpH7-TA7/GpH7-B78/GpL16-k0 divided by KD of the antibody)” value in [2] and in [6] was 1 fold in each case. The “KD ratio 1 (KD of GpH7-G1d/GpL16-k0 divided by KD of the antibody)” value in assay [4] was determined as 261 fold. Also, the “KD ratio 2 (KD of GpH7-A5/GpH7-B3/GpL16-k0 divided by KD of the antibody)” value in assay [4] was 347 fold.

B2: GpH7-TA22/GpH7-B78/GpL16-k0 (antibody, human IgG1, kappa)
heavy 1: B1 heavy 1 with S237D
heavy 2: B1 heavy 1 with Y232L, W234G, S237D, A296S, A328L, I330E, K354D, R433H, K437E
light: B1 light
notes: Heterodimerized anti-glypican-3 IgG1 variant
Take B2: the equilibrium dissociation constant (Kd) in [7] and in [3] was 1.3 nM throughout. Besides, in assay [8], the “KD ratio (KD of GpH7-TA22/GpH7-B78/GpL16-k0 divided by KD of the antibody)” value came out at 1 fold. Moreover, the “KD ratio (KD of GpH7-TA7/GpH7-B78/GpL16-k0 divided by KD of the antibody)” value in [6] was 3.2 fold.

B3: GpH7-TA7/GpH7-TA50/GpL16-k0 (antibody, human IgG1, kappa)
heavy 1: B1 heavy 1
heavy 2: B1 heavy 1 with Y232L, W234G, S237D, A296S, A328L, I330E, K332G, K354D, R433H, K437E
light: B1 light
notes: Heterodimerized anti-glypican-3 IgG1 antibody; also called TA7/TA50
As for B3, the Kd in the assay with FcγRIIIa [9] was 3.4 nM. For the same molecule, the KD ratio with FcγRIIIa [10] is 1.2.

B4: GpH7-TA40/GpH7-B78/GpL16-k0 (antibody, human IgG1, kappa)
heavy 1: B1 heavy 1 with K332G
heavy 2: B1 heavy 1 with Y232L, W234G, S237D, A296S, A328L, I330E, K354D, R433H, K437E
light: B1 light
notes: Heterodimerized anti-glypican-3 IgG1 antibody; K334G is in the same H chain as L234Y/G236W/S298A; also called TA40/B78
For the molecule B4, the dissociation constant (Kd) in the assay with FcγRIIIa [9] stood at 7.5 nM. The KD ratio with FcγRIIIa [10] was found to be 0.5.

B5: H240-Kn192/H240-Hl204/L73-k0 (antibody, human IgG1, kappa)
heavy 1: QDQLVQSGAEVKKPGASVKVSCKASGFNIKDTYIQWVRQAPGQGLEWMGRIDPLRKQTKYREKFEGRVTITADTSTNTAYMELSSLRSEDTAVYYCVRSGREFDYWGQGTLVTVSSASTKGPSVFPLAPSSKSTSGGTAALGCLVKDYFPEPVTVSWNSGALTSGVHTFPAVLQSSGLYSLSSVVTVPSSSLGTQTYICNVNHKPSNTKVDKKVEPKSCDKTHTCPPCPAPEYNWGPMVFLFPPKPKDTLMISRTPEVTCVVVDVSDEDPEVKFNWYVDGVEVHNAKTKPREKQYNATYRVVSVLTVLHQDWLNGKEYKCKVSNKDLPAPIEKTISKAKGQPREPQVCTLPPSRDELTKNQVSLWCLVKGFYPSDIAVEWESNGQPENNYKTTPPVLDSDGSFFLYSKLTVDKSRWQQGNVFSCSVMHEALHNHYTQKSLSLSP
heavy 2: QDQLVQSGAEVKKPGASVKVSCKASGFNIKDTYIQWVRQAPGQGLEWMGRIDPLRKQTKYREKFEGRVTITADTSTNTAYMELSSLRSEDTAVYYCVRSGREFDYWGQGTLVTVSSASTKGPSVFPLAPSSKSTSGGTAALGCLVKDYFPEPVTVSWNSGALTSGVHTFPAVLQSSGLYSLSSVVTVPSSSLGTQTYICNVNHKPSNTKVDKKVEPKSCDKTHTCPPCPAPELLTGPSVFLFPPKPKDTLMISRTPEVTCVVVDVSHEEPEVKFNWYVDGVEVHNAKTKPREEQYNSTYRVVSVLTVLHQDWLNGKEYKCKVSNDALPKPEEETISKAKGQPREPQVYTLPPSRCELTKNQVSLSCAVKGFYPSDIAVEWESNGQPENNYKTTPPVLDSDGSFFLVSKLTVDKSRWQQGNVFSCSVMHEALHNHYTQKSLSLSP
light: DIQMTQSPSSLSASVGDRVTITCRASQDIHKYIAWYQQKPGQAPRLLIQYTSTLQPGVPSRFSGSGSGTDYTFTISSLQPEDIATYYCLQYEQLRTFGGGTKVEIKRTVAAPSVFIFPPSDEQLKSGTASVVCLLNNFYPREAKVQWKVDNALQSGNSQESVTEQDSKDSTYSLSSTLTLSKADYEKHKVYACEVTHQGLSSPVTKSFNRGEC
notes: Y235N/E294K in H240-Kn120; G236T/I332E in H240-Hl068
By koff is commonly meant the rate constant with which the complex falls apart. A high value points to a short-lived complex. Molecule B5 yielded an off-rate (koff) in the assay with FcγRIa of less than 5e-05 s⁻¹. Besides, the “fold enhancement of binding against the variant before introduction of I332E and Y235N” value in the assay with FcγRIIIa V stood at 8 fold; in the assay with FcγRIIIa F, 2 fold.
